The experiment addresses T1, ZIKV E80 (寨卡病毒包膜蛋白N端80%区域, 氨基酸1-409) (Zika virus (2015 South American …, UniProt A0A024B7W1 291-699)).
T1 construct: also called ZKE80
Put plainly: BLI (Octet-Red), biotinylated ZIKV E80 on streptavidin sensor, antibody at 40-0.064 ug/ml in solution.

T1 sequence (A0A024B7W1 291-699): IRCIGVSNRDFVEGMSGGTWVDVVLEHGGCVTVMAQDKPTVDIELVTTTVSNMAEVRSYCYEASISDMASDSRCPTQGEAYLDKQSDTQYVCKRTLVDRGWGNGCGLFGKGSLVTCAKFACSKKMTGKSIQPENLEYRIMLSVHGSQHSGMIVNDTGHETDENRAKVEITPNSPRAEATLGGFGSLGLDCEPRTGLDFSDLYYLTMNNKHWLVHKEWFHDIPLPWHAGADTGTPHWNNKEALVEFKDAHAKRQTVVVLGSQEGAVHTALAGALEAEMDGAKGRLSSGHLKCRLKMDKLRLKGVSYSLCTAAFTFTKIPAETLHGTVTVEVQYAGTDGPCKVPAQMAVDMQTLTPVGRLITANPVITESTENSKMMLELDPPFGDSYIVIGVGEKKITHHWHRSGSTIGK

B1: 单克隆抗体5F8 (antibody, V domains shown)
VH: QVQLQQSGAELVRPGVSAKISCKASGYIFTDYAMHWVKQSHAKSLEWIGLISTKSGAANYNQKFTDKATLTVDKSSSTAYLELARLTSEDSAIYYCARNDYLAWLPYWGQGTLVTVSA
VL: DVLMTQTPLSLPVSLGDHASISCRSSQSIVHSNGNTYLEWYLQKPGQSPKLLIYKVSYRFSGVPDRFSGSGSGTDFTLKISRVEAEDLGVYYCFQGSHVPWTFGGGTKLEIK
notes: also called 单抗5F8; 重组5F8
Usually Kd stands for the free concentration of one partner at which half of the binding sites on the other are occupied at equilibrium, for simple one-to-one binding. Read a high Kd as lower affinity. B1 returned a Kd of 15 nM.

For the origin of these results see CN109081868A (INST PASTEUR SHANGHAI CAS, dated 2018).
